Values of other authors, collected in article PMC7134607.
pKd: −log10 of the molar value.

Target: SARS main protease (SARS coronavirus) (UniProt P0C6X7)

SARS main protease (from UniProt P0C6X7)
pKd: 4.00
